Experimental findings from patent publication US20230101266A1 (GENEQUANTUM HEALTHCARE SUZHOU, published 2023) are described below.

The chains are these.
T1: recombinant extracellular domain of human TROP2 (human, UniProt P09758 27-274)
T1 construct: extracellular domain; Commercial protein (Acrobiosystem), used as the analyte in SPR; also called Trophoblast antigen 2; GA733-1
T1 sequence (looked up): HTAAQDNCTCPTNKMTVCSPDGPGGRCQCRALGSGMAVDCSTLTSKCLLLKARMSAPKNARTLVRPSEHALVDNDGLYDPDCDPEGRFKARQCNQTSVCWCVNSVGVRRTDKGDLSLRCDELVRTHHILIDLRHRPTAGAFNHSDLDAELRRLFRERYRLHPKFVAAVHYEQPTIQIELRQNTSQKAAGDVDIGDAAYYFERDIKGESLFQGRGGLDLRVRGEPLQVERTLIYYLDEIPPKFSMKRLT

B1: Ab0054 (antibody, human IgG1, kappa, V domains shown)
VH: QVQLVQSGAEVKKPGSSVKVSCKASGYRFTDYVINWVRQAPGQGLEWMGQIYPGSDSFHYNQKFQGRATLTADKSTNTAYMELSSLRSEDTAVYYCARFFEGLAYWGQGTLVTVSS
VL: DIQMTQSPSSLSASVGDRVTITCKASQGINNYLSWYQQKPGKAPKSLIYRANRLVDGVPSRFSGSGSGTDFTLTISSLQPEDFATYYCLQYDEFPLTFGGGTKVEIKR
notes: Humanized IgG; also called Ab0001-huV5-VL / Ab0001-huV4-VH
B2: Ab0053 (antibody, human IgG1, kappa, V domains shown)
VH: QVQLVQSGAEVKKPGSSVKVSCKASGYRFTDYVINWVRQAPGQGLEWMGQIYPGSDSFHYNQKFQGRATLTADKSTNTAYMELSSLRSEDTAVYYCARFFEGLAYWGQGTLVTVSS
VL: DIQMTQSPSSLSASVGDRVTITCKASQGINNYLSWYQQKPGKAPKSLIYRANRLVDGVPSRFSGSGSGTDYTLTISSLQPEDFATYYCLQYDEFPLTFGGGTKVEIKR
notes: Humanized IgG; also called Ab0001-huV4-VL / Ab0001-huV4-VH
B3: Ab0061 (antibody, human IgG1, kappa, V domains shown)
VH: QVQLVQSGAEVKKPGSSVKVSCKASGYRFTDYVINWVRQAPGQGLEWMGQIYPGSDTFHYNQKFQGRATLTADKSTNTAYMELSSLRSEDTAVYYCARFFEGLAYWGQGTLVTVSS
VL: DIQMTQSPSSLSASVGDRVTITCKASQGINNYLSWYQQKPGKAPKSLIYRANRLVDGVPSRFSGSGSGTDFTLTISSLQPEDFATYYCLQYDEFPLTFGGGTKVEIKR
notes: Humanized IgG; also called Ab0001-huV5-VL / Ab0001-huV5-VH
B4: Ab0063 (antibody, human IgG1, kappa, V domains shown)
VH: QVQLVQSGAEVKKPGSSVKVSCKASGYRFTDYVINWVRQAPGQGLEWMGQIYPGSDSFHYNQKFQGRATLTADKSTNTAYMELSSLRSEDTAVYYCARFFEGLAYWGQGTLVTVSS
VL: DIQMTQSPSSLSASVGDRVTITCKASQGINNYLSWYQQKPGKAPKSLIYRANRLVSGVPSRFSGSGSGTDFTLTISSLQPEDFATYYCLQYDEFPLTFGGGTKVEIKR
notes: Humanized IgG; also called Ab0001-huV8-VL / Ab0001-huV4-VH
B5: Ab0064 (antibody, human IgG1, kappa, V domains shown)
VH: QVQLVQSGAEVKKPGSSVKVSCKASGYRFTDYVINWVRQAPGQGLEWMGQIYPGSDTFHYNQKFQGRATLTADKSTNTAYMELSSLRSEDTAVYYCARFFEGLAYWGQGTLVTVSS
VL: DIQMTQSPSSLSASVGDRVTITCKASQGINNYLSWYQQKPGKAPKSLIYRANRLVSGVPSRFSGSGSGTDFTLTISSLQPEDFATYYCLQYDEFPLTFGGGTKVEIKR
notes: Humanized IgG; also called Ab0001-huV8-VL / Ab0001-huV5-VH
B6: Ab0062 (antibody, human IgG1, kappa, V domains shown)
VH: QVQLVQSGAEVKKPGSSVKVSCKASGYRFTDYVINWVRQAPGQGLEWMGQIYPGSDAFHYNQKFQGRATLTADKSTNTAYMELSSLRSEDTAVYYCARFFEGLAYWGQGTLVTVSS
VL: DIQMTQSPSSLSASVGDRVTITCKASQGINNYLSWYQQKPGKAPKSLIYRANRLVDGVPSRFSGSGSGTDFTLTISSLQPEDFATYYCLQYDEFPLTFGGGTKVEIKR
notes: Humanized IgG; also called Ab062; Ab0001-huV5-VL / Ab0001-huV6-VH
B7: Ab0052 (antibody, human IgG1, kappa, V domains shown)
VH: QVQLVQSGAEVKKPGSSVKVSCKASGYRFTDYVINWVRQAPGQGLEWMGQIYPGSDSFHYNQKFQGRATLTADKSTNTAYMELSSLRSEDTAVYYCARFFEGLAYWGQGTLVTVSS
VL: DIQMTQSPSSLSASVGDRVTITCKASQGINNYLSWYQQKPGKAPKSLIYRANRLVDGVPSRFSGSGSGQDYTLTISSLQPEDFATYYCLQYDEFPLTFGGGTKVEIKR
notes: Humanized IgG; also called Ab0001-huV3-VL / Ab0001-huV4-VH

The assay concerns the target T1, recombinant extracellular domain of …. The assay can be described thus: SPR, Biacore 8K, antibody captured on Protein A chip, TROP2 ECD as analyte, 25 C, 1:1 model. How it is done:
Binding kinetics and affinity analysis are performed. Surface Plasmon Resonance (SPR) analysis is performed on a Biacore 8K (GE healthcare) with a Sensor Chip Protein A (GE healthcare) following manufacturer's instructions. All measurements are performed at 25° C. in the HBS-EP+ buffer (10 mM HEPES, pH 7.4, 150 mM NaCl, 3 mM EDTA, and 0.05% surfactant P20). About 110-140 RU (Resonance unit) of each of the purified antibodies is captured on flow cells 2, 4, 6, 8, 10, 12, 14, 16 (i.e., the reaction surface) of the sensor chip, respectively. Flow cells 1, 3, 5, 7, 9, 11, 13 and 15 are treated with the HBS-EP+ buffer to serve as reference surfaces.
Serial dilutions of the recombinant extracellular domain of human TROP2 (i.e., the analyte) (Acrobiosystem) (243, 81, 27, 9, 3, 1, 0.333, and 0.111 nM, respectively) are prepared in HBS-EP+ buffer. Capturing of the antibodies is followed by a three-minute injection (association phase) of serial dilutions of TROP2 at a flow rate of 30 μL/min and ten minutes of buffer flow (dissociation phase). The chip surface is regenerated by two pulses of 30-second injection of 10 mM Glycine-HCl pH 1.5 at a flow rate of 50 μL/min. The collected data are processed on a Biacore 8K Evaluation software using methods known in the art, comprising the following steps: (1) setting the response on the y-axis and the start of the injection on the x-axis to zero, (2) performing double referencing by firstly subtracting the reference surface data from the reaction surface data to get the analyte injection curves, and then subtracting the buffer injection curves from the analyte injection curves, and (3) performing the kinetic analysis using the 1:1 binding model with a global fit. The result for each antibody is presented as Ka (on-rate), Kd (off-rate) and KD (affinity constant) (Table 3).
Background: Surface plasmon resonance follows binding to a sensor surface in real time, without labels.
Take B1: the Kd (as a rule, the concentration at which binding is half-saturated) came out at 0.43 nM; the koff (in general, the rate constant with which the complex falls apart) came out at 0.000416 s⁻¹; the kon (in general, a measure of how fast the partners come together) was determined as 975000 M⁻¹ s⁻¹.

Regarding B2, the Kd was found to be 0.32 nM, the koff came out at 0.000326 s⁻¹ and the kon turned out to be 1.01e+06 M⁻¹ s⁻¹.

As for B3, the Kd worked out at 0.62 nM, the koff was 0.000545 s⁻¹ and the kon amounted to 874000 M⁻¹ s⁻¹.

As to B4, the Kd stood at 0.46 nM, the koff stood at 0.000394 s⁻¹ and the kon was found to be 862000 M⁻¹ s⁻¹.

B5: the Kd was determined as 0.76 nM, the koff amounted to 0.000547 s⁻¹ and the kon turned out to be 722000 M⁻¹ s⁻¹.

In the case of B6, the Kd was 0.81 nM, the koff came out at 0.000719 s⁻¹ and the kon stood at 889000 M⁻¹ s⁻¹.

Turning to B7, the Kd amounted to 0.31 nM, the koff came out at 0.000321 s⁻¹ and the kon was found to be 1.03e+06 M⁻¹ s⁻¹.
